According to patent US20240050432A1 (Infinity Pharmaceuticals, Inc., priority 2020, published 2024):
Like-named read-outs stand apart in the source and are kept apart here.

Experiments:
[1] = Phase 2 urothelial carcinoma study: adverse events; format: in vivo, human
From the text: (§1) Methods: Eligible patients (pts) with mUC who progressed on >1 platinum-based chemotherapy regimen and were CPI naïve were enrolled. […] Pts were stratified by baseline circulating monocytic myeloid derived suppressor cells (mMDSC) level. The primary endpoint was objective response rate (ORR) per RECIST v1.1 in pts with high baseline mMDSC levels. Other endpoints included ORR, progression free survival (PFS) and overall survival (OS) in all pts, PD-L1+/−pts and pts with hepatic adverse events (AE).
(§2) The dose for nivolumab is 480 mg Q4W.

[2] = tested on: advanced urothelial carcinoma; test: Phase 2 randomized study of eganelisib + nivolumab vs nivolumab: response, PFS, OS; format: in vivo, human; conditions: for Median PFS: preliminary PFS
From the text: as §1
Advanced platinum refractory 2nd line urothelial cancer patients: Inclusion/exclusion criteria per CheckMate-275; MDSC* all corners (stratified); PD-L1** status all corners (non-stratified). • * Circulating mMDSC levels measured in baseline peripheral blood samples based on a Clinical Laboratory Improvement Amendments (CLIA)-certified flow cytometry assay (low [<22.3%] or high [≥22.3%] or ≥/<the median MDSC level of patients in this trial) • ** PD-L1 expression measured in baseline/archival tumor biopsies with Dako PD-L1 immunohistochemical 28-8 pharmDx kit approved for nivolumab in UC, except 2 biopsies tested with 22C3 PD-L1 antibody prior to study (Tumor Proportion Score≥1% cutoff for PD-L1 (+)) • Primary objective: ORR in MDSC High • Secondary objectives: ORR, TTR, DOR, and PFS in total population+MDSC subsets; safety; PK • Exploratory objectives: safety and efficacy in biomarker subsets, including PD-L1; OS
as §2

[3] = tested on: interferon alpha pathway; test: Peripheral blood gene set enrichment, day 15 vs. day 0; format: in vivo, human
From the text: (§3) In all patients (day 15 vs. day 0): interferon gamma pathway: ES=0.81, p<0.01 (combination, n=31) vs. ES=0.51, p=0.28 (nivolumab, n=14); interferon alpha pathway: ES=0.87, p<0.01 (combination, n=31) vs. ES=0.53, p=0.39 (nivolumab, n=14). In PD-L1 negative patients (day 15 vs. day 0): interferon gamma pathway: ES=0.82, p<0.01 (combination, n=21) vs. ES=0.55, p=0.15 (nivolumab, n=5); interferon alpha pathway: ES=0.88, p<0.01 (combination, n=21) vs. ES=0.53, p=0.35 (nivolumab, n=5).

[4] = tested on: interferon gamma pathway; test: as above; format: in vivo, human
From the text: as §3

[5] = tested on: metastatic urothelial carcinoma (mUC); conditions: CheckMate-275, cited from earlier work
[6] = preliminary analysis, N=33 vs N=16
[7] = preliminary analysis, N=33 vs N=16, 1 Grade 4
[8] = snapshot Jun. 26, 2021, N=33 vs N=16
[9] = snapshot Jun. 26, 2021, PD-L1 negative patients
[10] = snapshot Jun. 26, 2021, all patients
[11] = PD-L1 negative patients, n=21 vs n=5

## Nivolumab + Placebo: placebo with nivolumab (PN), active control arm
[1]; first 49 pts (33 EN, 16 PN)
  asthenia, all-Gr AE: 31%
  hepatotoxicity, Gr≥3 AE: 0%
  pruritis, all-Gr AE: 6%
  pyrexia, all-Gr AE: 0%
  rash, Gr≥3 AE: 0%
  rash, all-Gr AE: 6%
  transaminase elevation, Gr≥3 AE: 6%
  transaminase elevation, all-Gr AE: 6%
[1]; [6]
  Aspartate aminotransferase increased, Grade≥3 TEAE, Related to Eganelisib (Placebo in control arm): 0 n (%)
  Aspartate aminotransferase increased, Grade≥3 TEAE, Related to Nivolumab: 0 n (%)
  Asthenia, TEAE, All Causality: 4 (25.0) n (%)
  Asthenia, TEAE, Related to Eganelisib (Placebo in control arm): 2 (12.5) n (%)
  Asthenia, TEAE, Related to Nivolumab: 1 (6.3) n (%)
  Decreased appetite, TEAE, All Causality: 4 (25.0) n (%)
  Decreased appetite, TEAE, Related to Eganelisib (Placebo in control arm): 1 (6.3) n (%)
  Decreased appetite, TEAE, Related to Nivolumab: 0 n (%)
  Disease progression, Grade≥3 TEAE, All Causality: 6 (37.5) n (%)
  Disease progression, Grade≥3 TEAE, Related to Eganelisib (Placebo in control arm): 0 n (%)
  Disease progression, Grade≥3 TEAE, Related to Nivolumab: 0 n (%)
  Disease progression, TEAE, All Causality: 6 (37.5) n (%)
  Disease progression, TEAE, Related to Eganelisib (Placebo in control arm): 0 n (%)
  Disease progression, TEAE, Related to Nivolumab: 0 n (%)
  Hepatotoxicity, Grade≥3 TEAE, Related to Eganelisib (Placebo in control arm): 0 n (%)
  Hepatotoxicity, Grade≥3 TEAE, Related to Nivolumab: 0 n (%)
  Pruritus, TEAE, All Causality: 1 (6.3) n (%)
  Pruritus, TEAE, Related to Eganelisib (Placebo in control arm): 0 n (%)
  Pruritus, TEAE, Related to Nivolumab: 0 n (%)
  Pyrexia, TEAE, All Causality: 0 n (%)
  Pyrexia, TEAE, Related to Eganelisib (Placebo in control arm): 0 n (%)
  Pyrexia, TEAE, Related to Nivolumab: 0 n (%)
  Rash, TEAE, All Causality: 1 (6.3) n (%)
  Rash, TEAE, Related to Eganelisib (Placebo in control arm): 0 n (%)
  Rash, TEAE, Related to Nivolumab: 0 n (%)
[1]; [7]
  Aspartate aminotransferase increased, Grade≥3 TEAE, All Causality: 1 (6.3) n (%)
  Hepatotoxicity, Grade≥3 TEAE, All Causality: 0 n (%)
[1]; [8]
  Anemia, Grade≥3 TEAE, All Causality: 1 (6.3) n (%)
  Anemia, Grade≥3 TEAE, Related to Eganelisib (Placebo in control arm): 0 n (%)
  Anemia, Grade≥3 TEAE, Related to Nivolumab: 0 n (%)
  Aspartate aminotransferase increased, Grade≥3 TEAE, All Causality: 1 (6.3) n (%)
  Aspartate aminotransferase increased, Grade≥3 TEAE, Related to Eganelisib (Placebo in control arm): 1 (6.3) n (%)
  Aspartate aminotransferase increased, Grade≥3 TEAE, Related to Nivolumab: 1 (6.3) n (%)
  Asthenia, TEAE, All Causality: 5 (31.3) n (%)
  Asthenia, TEAE, Related to Eganelisib (Placebo in control arm): 2 (12.5) n (%)
  Asthenia, TEAE, Related to Nivolumab: 1 (6.3) n (%)
  Decreased appetite, TEAE, All Causality: 5 (31.3) n (%)
  Decreased appetite, TEAE, Related to Eganelisib (Placebo in control arm): 1 (6.3) n (%)
  Decreased appetite, TEAE, Related to Nivolumab: 0 n (%)
  Disease progression, Grade≥3 TEAE, All Causality: 4 (25.0) n (%)
  Disease progression, Grade≥3 TEAE, Related to Eganelisib (Placebo in control arm): 0 n (%)
  Disease progression, Grade≥3 TEAE, Related to Nivolumab: 0 n (%)
  Disease progression, TEAE, All Causality: 4 (25.0) n (%)
  Disease progression, TEAE, Related to Eganelisib (Placebo in control arm): 0 n (%)
  Disease progression, TEAE, Related to Nivolumab: 0 n (%)
  Hepatotoxicity, Grade≥3 TEAE, All Causality: 0 n (%)
  Hepatotoxicity, Grade≥3 TEAE, Related to Eganelisib (Placebo in control arm): 0 n (%)
  Hepatotoxicity, Grade≥3 TEAE, Related to Nivolumab: 0 n (%)
  Pruritus, TEAE, All Causality: 1 (6.3) n (%)
  Pruritus, TEAE, Related to Eganelisib (Placebo in control arm): 0 n (%)
  Pruritus, TEAE, Related to Nivolumab: 0 n (%)
  Pyrexia, TEAE, All Causality: 0 n (%)
  Pyrexia, TEAE, Related to Eganelisib (Placebo in control arm): 0 n (%)
  Pyrexia, TEAE, Related to Nivolumab: 0 n (%)
  Rash, TEAE, All Causality: 1 (6.3) n (%)
  Rash, TEAE, Related to Eganelisib (Placebo in control arm): 0 n (%)
  Rash, TEAE, Related to Nivolumab: 0 n (%)
[1]; snapshot Jun. 26, 2021, of discontinued patients
  Discontinued treatment: Adverse event, unrelated to treatment: 0 n
[2]; PD-L1(−) patients, best change of target lesion
  patients with reduction of tumor burden: 17%
[2]; ITT
  Median PFS: 8.5 wks
[2]; PD-L1(+)
  Median PFS: 16.4 wks
[2]; PD-L1(−)
  Median PFS: 7.9 wks
[2]; snapshot Jun. 26, 2021
  patients for whom durability of OS benefit continued to mature: 18%
[2]; [9]
  median OS (mOS): 7.9 months
[2]; [10]
  median OS (mOS): 7.9 months

## nivolumab
[3]; [11]
  gene set Enrichment Score (ES), interferon alpha pathway: 0.53
[3]; all patients, n=31 vs n=14
  gene set Enrichment Score (ES), interferon alpha pathway: 0.53
[4]; [11]
  gene set Enrichment Score (ES), interferon gamma pathway: 0.55
[4]; all patients, n=31 vs n=14
  gene set Enrichment Score (ES), interferon gamma pathway: 0.51
[5]; All (n = 270)
  Median OS (95% CI): 8.6 (6.1-11.3) mo.
  Median PFS (95% CI): 1.9 (1.9, 2.3) mo.
  ORR (95% CI): 20 (16-26) %
[5]; PD-L1 < 1% (n = 146)
  Median OS (95% CI): 6.0 (4.4-8.1) mo.
  Median PFS (95% CI): 1.9 (1.7, 2.0) mo.
  ORR (95% CI): 16 (10-23) %
[5]; PD-L1 ≥ 1% (n = 124)
  Median OS (95% CI): 11.9 (9.1-19.1) mo.
  Median PFS (95% CI): 3.5 (1.9, 3.7) mo.
  ORR (95% CI): 26 (18-34) %
[2]; [9]
  overall survival probability at one year landmark: 17%
[2]; [10]
  overall survival probability at one year landmark: 32%
